Patent publication EP4631959A2, “NOVEL MINIGASTRIN-DERIVED CHOLECYSTOKININ 2 RECEPTOR BINDING MOLECULES FOR IMAGING AND TARGETED RADIOTHERAPY” (priority 2022, dated 2024)
Read-outs that look alike come from different tables or passages of the source. Starred links: 1 amine or outer side, 2 acyl side, 3 side chain; linkers in the order of their positions; H or OH if unused. Non-standard residues stand in square brackets, D forms with d. Residues, ends and D or L forms follow the SMILES beside them. *: point of attachment. Benzoyl(4-SiFtBu2) = CC(C)(C)[Si](F)(c1ccc(C(=O)*)cc1)C(C)(C)C; X1 = CC(C)(C)[Si](F)(c1ccc(C[N+](C)(C)CC(=O)*)cc1)C(C)(C)C; DOTA = O=C(O)CN1CCN(CC(=O)O)CCN(CC(=O)*)CCN(CC(=O)O)CC1; d(γGlu) = O=C(O)[C@@H](CCC(=O)[*:2])N[*:1]; 1Nal = N[C@@H](Cc1cccc2ccccc12)C(=O)O; Hyp = O=C(O)[C@@H]1C[C@@H](O)CN1; dCit = NC(=O)NCCC[C@@H](N)C(=O)O; PEG5 = NCCOCCOCCOCCOCCOCCC(=O)O; NMeNle = CCCC[C@H](NC)C(=O)O; PEG4 = NCCOCCOCCOCCOCCC(=O)O; dDap = NC[C@@H](N)C(=O)O

Tests used:
CCK-2R [1] = target: T1, CCK-2R (Rattus norvegicus, UniProt P30553); experiment: Determination of IC50: CCK-2R affinity on AR4-2J cells, competition with [^177Lu]Lu-DOTA-PP-F11N; assay type: binding; conditions: AR4-2J cells
T1 construct: The CCK-2R expressing rat pancreatic tumor cells AR4-2J; host or cells: AR4-2J rat pancreatic tumor cells
T1 sequence (P30553 1-452): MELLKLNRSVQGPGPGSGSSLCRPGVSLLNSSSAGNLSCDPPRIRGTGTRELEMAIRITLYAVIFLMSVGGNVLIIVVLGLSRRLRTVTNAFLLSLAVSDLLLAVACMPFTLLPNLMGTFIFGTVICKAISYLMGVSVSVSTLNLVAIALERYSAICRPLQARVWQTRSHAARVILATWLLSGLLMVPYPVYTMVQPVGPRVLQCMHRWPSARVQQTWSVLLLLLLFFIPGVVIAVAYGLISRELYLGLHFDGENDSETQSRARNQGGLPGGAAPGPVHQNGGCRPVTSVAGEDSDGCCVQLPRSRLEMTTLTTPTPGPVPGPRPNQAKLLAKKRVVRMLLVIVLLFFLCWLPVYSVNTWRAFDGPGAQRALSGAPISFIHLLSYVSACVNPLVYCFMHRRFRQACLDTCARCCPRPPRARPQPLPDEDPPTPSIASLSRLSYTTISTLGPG
Outline: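 Competitive displacement of 0.3 pmol/well [177Lu]Lu-DOTA-PP-F11N by compounds (10^-10 to 10^-4 M) on AR4-2J cells in BSA-supplemented medium, 3 h at 37 °C. Free label was collected from medium plus PBS rinse, and cell-bound label was recovered with 1 M NaOH, both measured by γ-counter. Each IC50 was determined twice, in triplicate.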

[2] = target: T2, Human serum albumin (HSA) (Homo sapiens, UniProt P02768); experiment: Determination of HSA binding on a Chiralpak HSA column; assay type: in vitro ADME
T2 construct: purchased Daicel, Tokyo, Japan H13H-2433
T2 sequence (P02768 25-609): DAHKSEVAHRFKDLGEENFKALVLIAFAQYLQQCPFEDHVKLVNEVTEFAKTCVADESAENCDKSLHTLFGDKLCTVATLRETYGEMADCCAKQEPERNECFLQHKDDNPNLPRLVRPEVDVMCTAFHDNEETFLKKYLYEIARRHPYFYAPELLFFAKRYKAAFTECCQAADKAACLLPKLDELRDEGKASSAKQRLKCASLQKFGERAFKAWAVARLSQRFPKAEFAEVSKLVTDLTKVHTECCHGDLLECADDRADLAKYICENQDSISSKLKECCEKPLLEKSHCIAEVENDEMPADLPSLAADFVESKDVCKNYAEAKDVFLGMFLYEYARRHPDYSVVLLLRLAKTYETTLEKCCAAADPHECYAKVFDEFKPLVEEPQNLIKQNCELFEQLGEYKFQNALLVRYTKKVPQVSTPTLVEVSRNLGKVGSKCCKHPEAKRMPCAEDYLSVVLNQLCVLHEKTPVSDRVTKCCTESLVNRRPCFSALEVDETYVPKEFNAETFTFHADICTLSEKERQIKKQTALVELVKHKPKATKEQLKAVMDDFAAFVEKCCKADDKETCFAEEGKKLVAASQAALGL
Description: Human serum albumin (HSA) binding of the CCK-2R-targeted compounds was determined as reported by Valko et al., using a Chiralpak HSA column (50 x 3 mm, 5 µm, H13H-2433, Daicel, Tokyo, Japan) at a constant flow rate of 0.5 mL/min at rt. Therefore, an aq. solution of NH4OAc (pH = 6.9, 50 mM) as mobile phase A and isopropanol as mobile phase B were freshly prepared. In order to calibrate the column prior to the experiments, the retention times of nine reference substances with a HSA binding in the range of 13 to 99% were determined using a gradient of 100% A (0 to 3 min), followed by 80% A (3 to 40 min). Furthermore, all substances tested, were dissolved in a mixture (1/1, v/v) of A and B reaching a final concentration of 0.5 mg/mL. The HSA binding of all rhCCK ligands tested, was determined using the same gradient as for the calibration probes. The non-linear regression of the calibration experiments and the CCK-2R ligands (Fig. 29) was established using the OriginPro 2016G software (Northampton, United States).

[3] = Biodistribution in AR4-2J tumor-bearing CB17-SCID mice; assay type: in vivo; conditions: female, CB17-SCID, mouse, in vivo, iv, 100 pmol, total radioactivity
Description: All animal experiments were conducted in accordance with general animal welfare regulations in Germany (German animal protection act, in the edition of the announcement, dated May 18th, 2006, as amended by Article 280 of June 19th 2020, approval no. ROB-55.2-1-2532.Vet_02-18-109 by the General Administration of Upper Bavaria) and the institutional guidelines for the care and use of animals. CB17-SCID mice of both genders (Charles River Laboratories International Inc., Sulzfeld, Germany) were let to acclimate at the in-house animal facility at least for one week before inoculation was performed. To establish tumor xenografts, AR4-2J cells (5.0 × 10^6 cells per 200 µL) were suspended in a 1/1 mixture (v/v) of Dulbecco modified Eagle medium / Nutrition Mixture F-12 with Glutamax-I (1/1) and Cultrex® Basement Membrane Matrix Type 3 (Trevigen, Gaithersburg, MD, USA) and inoculated subcutaneously onto the right shoulder of 6-10 weeks old CB17-SCID mice (Charles River, Sulzfeld, Germany). Mice were used for experiments when tumors had grown to a volume of 150-300 mm^3 (1-2 weeks after inoculation). Exclusion criteria for animals from an experiment were either a weight loss higher than 20%, a tumor size above 1,500 mm^3, an ulceration of the tumor, a respiratory distress or a change of behavior. None of these criteria applied to any animal from the experiment. Neither randomization nor blinding was applied in the allocation of the experiments. Health status is SPF according to FELASA.
Approximately 1-5 MBq (100 pmol) of the radiolabeled minigastrin analogues were injected into the tail vein of AR4-2J tumor-bearing female CB17-SCID mice and sacrificed at 1 to 24 h post injection (n = 4-5). Selected organs were removed, weighted and measured in a γ-counter.

[4] = n-Octanol-PBS distribution coefficient (logD7.4); assay type: physicochemical; conditions: pH = 7.4, ^177Lu-labeled
Description: Approximately 1 MBq of the labeled tracer was dissolved in 1 mL of a 1/1 mixture (v/v) of phosphate buffered saline (PBS, pH = 7.4) and n-octanol in an Eppendorf tube (1.5 mL). After vigorous mixing of the suspension for 3 min at rt, the vial was centrifuged at 9,000 rpm for 5 min (Biofuge 15, Heraeus Sepatech, Osterode, Germany) and 200 µL aliquots of both layers were measured in a γ-counter. The experiment was repeated at least five times.

CCK-2R [5] = experiment: Competition studies in AR4-2J tumor-bearing CB17-SCID mice; assay type: in vivo; conditions: co-administration of excess unlabeled competitor (40 nmol), 24 h p.i.
Description: For competition studies, the radiolabeled compound (approx. 1-5 MBq, 100 pmol) was co-injected with [^natLu]Lu-DOTA-MGS5 (40 nmol) into the tail vein of AR4-2J tumor-bearing CB17-SCID mice and sacrificed at 1 to 24 h post injection (n = 2). Selected organs were removed, weighted and measured in a γ-counter.

[6] = read-out: IC50 [nM] (n = 3), ^natLu-labeled, ^natLu-labeled
[7] = Tab. 8, metal not stated (Fig. 18: ^natLu)
[8] = ^natLu-labeled, read-out: IC50 [nM] (n = 3), ^natLu-labeled

Row | Structure (SMILES) | IC50 (CCK-2R [1]; [6]) [nM] | logD7.4 (n ≥ 5), ^177Lu-labeled [4] | HSA binding [%] [2, 7] [%] | IC50 (CCK-2R [1]; [8]) [nM] | other results
1 | CCCC[C@@H](C(=O)N[C@@H](CC(=O)O)C(=O)N[C@@H](Cc1cccc2ccccc12)C(N)=O)N(C)C(=O)[C@H](Cc1c[nH]c2ccccc12)NC(=O)CNC(=O)[C@H](Cc1ccc(O)cc1)NC(=O)[C@H](C)NC(=O)[C@@H](CCC(=O)O)NC(=O)CN1CCN(CC(=O)O)CCN(CC(=O)O)CCN(CC(=O)O)CC1 [DOTA-MGS5, DOTA-glu^6-Ala^7-Tyr^8-Gly^9-Trp^10-(N-Me)Nle^11-Asp^12-1-Nal^13-NH2, reference compound] |  |  |  |  | IC50 (CCK-2R [1]; ^natCu-labeled, read-out: IC50 [nM] (n = 3), ^natCu-labeled): 3.9 ± 1 nM; IC50 (CCK-2R [1]; ^natGa-labeled, read-out: IC50 [nM] (n = 3), ^natGa-labeled): 3.6 ± 0.4 nM; HSA binding [%] [2]: 87.6%; HSA binding [%], ^natCu-labeled [2]: 87.6%; HSA binding [%], ^natGa-labeled [2]: 82.0%; HSA binding [%], ^natLu-labeled [2]: 91.9%; tissue to tissue ratio at 24 h [3]: 1480 ± 329; tissue uptake at 24 h [3]: 11 ± 1.15 %ID/g
2 | CCCC[C@@H](C(=O)N[C@@H](CC(=O)O)C(=O)N[C@@H](Cc1cccc2ccccc12)C(N)=O)N(C)C(=O)[C@H](Cc1c[nH]c2ccccc12)NC(=O)CCOCCOCCOCCOCCNC(=O)CC[C@@H](NC(=O)[C@@H]1C[C@@H](O)CN1C(=O)[C@@H]1C[C@@H](O)CN1C(=O)[C@@H]1C[C@@H](O)CN1C(=O)[C@@H](CCCNC(N)=O)NC(=O)[C@@H](CCCNC(N)=O)NC(=O)[C@@H](CCCNC(N)=O)NC(=O)CC[C@@H](NC(=O)[C@@H](CNC(=O)c1ccc([Si](F)(C(C)(C)C)C(C)(C)C)cc1)NC(=O)CN1CCN(CC(=O)O)CCN(CC(=O)O)CCN(CC(=O)O)CC1)C(=O)O)C(=O)O [DOTA-rhCCK-85, DOTA-dap(SiFA)-γ-glu-(cit)3-(Hyp)3-γ-glu-(PEG)3-Trp-(N-Me)Nle-Asp-1-Nal-NH2] ({DOTA}-[dDap](Benzoyl(4-SiFtBu2))[d(γGlu)][dCit][dCit][dCit][Hyp][Hyp][Hyp][d(γGlu)][PEG4]W[NMeNle]D[1Nal]-NH2) | 12.9 ± 0.3 | −1.95 ± 0.09 | 90.3 |  | 
3 | CCCC[C@@H](C(=O)N[C@@H](CC(=O)O)C(=O)N[C@@H](Cc1cccc2ccccc12)C(N)=O)N(C)C(=O)[C@H](Cc1c[nH]c2ccccc12)NC(=O)CCOCCOCCOCCOCCNC(=O)CC[C@@H](NC(=O)[C@@H]1C[C@@H](O)CN1C(=O)[C@@H]1C[C@@H](O)CN1C(=O)[C@@H]1C[C@@H](O)CN1C(=O)[C@@H]1C[C@@H](O)CN1C(=O)[C@@H]1C[C@@H](O)CN1C(=O)[C@@H]1C[C@@H](O)CN1C(=O)[C@@H]1C[C@@H](O)CN1C(=O)[C@@H]1C[C@@H](O)CN1C(=O)CC[C@@H](NC(=O)[C@@H](CNC(=O)c1ccc([Si](F)(C(C)(C)C)C(C)(C)C)cc1)NC(=O)CN1CCN(CC(=O)O)CCN(CC(=O)O)CCN(CC(=O)O)CC1)C(=O)O)C(=O)O [DOTA-rhCCK-86, DOTA-dap(SiFA)-γ-glu-(Hyp)8-γ-glu-(PEG)3-Trp-(N-Me)Nle-Asp-1-Nal-NH2] ({DOTA}-[dDap](Benzoyl(4-SiFtBu2))[d(γGlu)][Hyp][Hyp][Hyp][Hyp][Hyp][Hyp][Hyp][Hyp][d(γGlu)][PEG4]W[NMeNle]D[1Nal]-NH2) | 10 ± 1.4 | −1.86 ± 0.06 | 88.1 |  | 
4 | CCCC[C@@H](C(=O)N[C@@H](CC(=O)O)C(=O)N[C@@H](Cc1cccc2ccccc12)C(N)=O)N(C)C(=O)[C@H](Cc1c[nH]c2ccccc12)NC(=O)CCOCCOCCOCCOCCNC(=O)CC[C@@H](NC(=O)CCOCCOCCOCCOCCOCCNC(=O)[C@@H](CNC(=O)C[N+](C)(C)Cc1ccc([Si](F)(C(C)(C)C)C(C)(C)C)cc1)NC(=O)CN1CCN(CC(=O)O)CCN(CC(=O)O)CCN(CC(=O)O)CC1)C(=O)O [DOTA-rhCCK-90, DOTA-dap(SiFAlin)-(PEG)4-γ-glu-(PEG)3-Trp-(N-Me)Nle-Asp-1-Nal-NH2] ({DOTA}-[dDap](X1)[PEG5][d(γGlu)][PEG4]W[NMeNle]D[1Nal]-NH2) |  | −0.76 ± 0.09 | 94.5 | 9.85 ± 1 | 
5 | CCCC[C@@H](C(=O)N[C@@H](CC(=O)O)C(=O)N[C@@H](Cc1cccc2ccccc12)C(N)=O)N(C)C(=O)[C@H](Cc1c[nH]c2ccccc12)NC(=O)CCOCCOCCOCCOCCNC(=O)CC[C@@H](NC(=O)CCOCCOCCOCCOCCOCCNC(=O)CC[C@@H](NC(=O)[C@@H](CNC(=O)C[N+](C)(C)Cc1ccc([Si](F)(C(C)(C)C)C(C)(C)C)cc1)NC(=O)CN1CCN(CC(=O)O)CCN(CC(=O)O)CCN(CC(=O)O)CC1)C(=O)O)C(=O)O [DOTA-rhCCK-91, DOTA-dap(SiFAlin)-γ-glu-(PEG)4-γ-glu-(PEG)3-Trp-(N-Me)Nle-Asp-1-Nal-NH2] |  | −1.66 ± 0.08 | 90.0 | 8.56 ± 0.7 | IC50 (CCK-2R [1]; read-out: IC50 [nM] (n = 3), ^natGa-labeled, ^natGa-labeled): 8.24 ± 1.6 nM
6 | CCCC[C@H](NC(=O)[C@H](Cc1c[nH]c2ccccc12)NC(=O)CNC(=O)[C@H](Cc1ccc(O)cc1)NC(=O)[C@H](C)NC(=O)CC[C@@H](NC(=O)CC[C@@H](NC(=O)CC[C@@H](NC(=O)CC[C@@H](NC(=O)CC[C@@H](NC(=O)CC[C@@H](NC(=O)[C@@H](CNC(=O)c1ccc([Si](F)(C(C)(C)C)C(C)(C)C)cc1)NC(=O)CCC(C(=O)O)N1CCN(CC(=O)O)CCN(CC(=O)O)CCN(CC(=O)O)CC1)C(=O)O)C(=O)O)C(=O)O)C(=O)O)C(=O)O)C(=O)O)C(=O)N[C@@H](CC(=O)O)C(=O)N[C@@H](Cc1ccccc1)C(N)=O (some centres unmarked) [DOTAGA-MG-SiFA-19, DOTAGA-dap(SiFA)-γ-F11N] |  | −2.54 ± 0.05 |  |  | activity levels in stomach and tumor in competition studies (CCK-2R specificity) (CCK-2R [5]): specific
